Values quoted from earlier work in publication PMC10148413.

Target: histone H3K4 methylated peptide (Homo sapiens) (UniProt P68431)

Kd: 150 µM
Substance: ASH1L PHD (from UniProt Q9NR48)
